Nine molecules from paper PMC4933465 (The Journal of Biological Chemistry, 2016) can be followed below.

Where a chain is given by its changes, count along the chain named. Names may count otherwise.

B1: CCL7 (ligand)
chain: not shown
notes: chemokine CCL7; source: E. coli, purified
B2: CCL27 (ligand, UniProt Q9Y4X3 25-112, looked up)
chain: FLLPPSTACCTQLYRKPLSDKLLRKVIQVELQEADGDCHLQAFVLHLAQRSICIHPQNPSLSQWFEHQERKLHGTLPKLNFGMLRKMG
notes: chemokine CCL27; source: E. coli, purified
B3: CCL27 K25A (ligand, UniProt Q9Y4X3 25-112, looked up)
chain: B2 chain with K25A
notes: chemokine CCL27 with K25A; also called CCL27 K25A mutant; source: E. coli, purified
B4: Link_TSG6_T (K55A/K69A/K76A) (domain or fragment, human)
chain: GVYHREARSGKYKLTYAEAAAVCEFEGGHLATYAQLEAARAIGFHVCAAGWMAKGRVGYPIVKPGPNCGFGKTGIIDYGIRLNRSERWDAYCYNPHAK
notes: Link module of human TSG-6 with three lysines changed to alanine; residues numbered as in the pre-protein
B5: CCL19 (ligand, UniProt Q99731 22-98, looked up)
chain: GTNDAEDCCLSVTQKPIPGYIVRNFHYLLIKDGCRVPAVVFTTLRGRQLCAPPDQPWVERIIQRLQRTSAKMKRRSS
notes: chemokine CCL19; source: E. coli, purified
B6: CCL21 (ligand, UniProt O00585 24-134, looked up)
chain: SDGGAQDCCLKYSQRKIPAKVVRSYRKQEPSLGCSIPAILFLPRKRSQAELCADPKELWVQQLMQHLDKTPSPQKPAQGCRKDRGASKTGKKGKGSKGCKRTERSQTPKGP
notes: chemokine CCL21; source: E. coli, purified
B7: Biotinylated CCL21 (ligand, UniProt O00585 24-134, looked up)
chain: B6 chain
modifications: biotin
notes: chemokine CCL21, biotinylated; also called biotinylated chemokine CCL21; source: E. coli, purified
B8: CCL5 (ligand, UniProt P13501 24-91, looked up)
chain: SPYSSDTTPCCFAYIARPLPRAHIKEYFYTSGKCSNPAVVFVTRKNRQVCANPEKKWVREYINSLEMS
notes: chemokine CCL5; source: E. coli, purified
B9: CXCL11 (ligand, UniProt O14625 22-94, looked up)
chain: FPMFKRGRCLCIGPGVKAVKVADIEKASIMYPSNNCDKIEVIITLKENKGQRCLNPKSKQARLIIKKVERKNF
notes: chemokine CXCL11; CXCL11 is not in the methods' list of chemokines made in E. coli

What all share (conditions): both partners purified
The target in assay [1] is T1, Link_TSG6 (recombinant Link module from human TSG-6) (human, UniProt P98066 36-133).
T1 construct: Link module of human TSG-6 (TNF-stimulated gene/protein 6); residues numbered as in the pre-protein; also called TSG-6 Link module
Kind of assay: SPR; Link_TSG6 amine-coupled to a C1 chip (800–1000 RU), chemokine as analyte; BIAcore 3000; 10 mM HEPES, 150 mM NaCl, 0.05% Tween 20, pH 7.4; 40 μl/min; 1:1 Langmuir model; apparent affinities.

Assay [2] has as its target B1. As to the kind of experiment: ELISA; solid phase competition: chemokine (250 nM) coated on MaxiSorp plates, biotinylated heparin (25 ng/well) with Link_TSG6_T (0–1000 nM); 10 mM NaOAc, 150 mM NaCl, 2% Tween 20, pH 6.0, room temperature, 4 h; bound heparin detected.
Assay [3] addresses B5. The assay is described as above.
Assay [4] deals with B9. Described as above.
In assay [5] the target is T2, CCL2 (UniProt P13500 24-99).
T2 construct: chemokine CCL2; source: E. coli, purified
The description is as above.

Assay [6] deals with T1, Link_TSG6 (recombinant Link module from …). As to the kind of experiment: plate binding assay on a collagen-coated surface, labeled streptavidin detection; wells coated with type I collagen (100 μg/ml); biotinylated chemokine (10, 50 or 200 nM) alone or pre-incubated 30 min at 37 °C with different molar ratios of Link_TSG6 in cPBS, then 1 h on the surface; streptavidin IRDye 800CW.

For assay [7] the target is unchanged. Kind of assay: SPR; Link_TSG6 amine-coupled to a C1 chip (800–1000 RU), chemokine as analyte; BIAcore 3000; 10 mM HEPES, 150 mM NaCl, 0.05% Tween 20, pH 7.4; 40 μl/min; 1:1 Langmuir model; apparent affinities. The source holds these as a separate data set.

CCL7, sequence (P80098 24-99): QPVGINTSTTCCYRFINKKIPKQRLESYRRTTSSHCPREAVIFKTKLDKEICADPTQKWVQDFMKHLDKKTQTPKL
T2 sequence (P13500 24-99): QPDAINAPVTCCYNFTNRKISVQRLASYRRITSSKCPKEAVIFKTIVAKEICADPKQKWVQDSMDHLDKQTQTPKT

Regarding B1, in assay [1], the Kd was found to be 18.4 nM, the off-rate (koff) is 0.0016 s⁻¹ and the on-rate (kon) was determined as 87000 M⁻¹ s⁻¹.
On to B2, for which, in assay [1], the Kd turned out to be 85.2 nM, the dissociation rate constant (koff) worked out at 0.0023 s⁻¹ and the kon came to 27000 M⁻¹ s⁻¹.
The corresponding values for B3 are 753 nM, 0.0061 s⁻¹ and 8100 M⁻¹ s⁻¹.
Consider B4, for which the 50% inhibitory concentration (IC50) in assay [2] came out at 159 nM; in assay [3], 55 nM; in assay [4], 168 nM; in assay [5] it was 84 nM.
In the case of B5, in assay [1], the Kd worked out at 17.5 nM, the koff amounted to 0.0028 s⁻¹ and the kon was 160000 M⁻¹ s⁻¹.
The corresponding values for B6 are 4.8 nM, 0.0034 s⁻¹ and 710000 M⁻¹ s⁻¹.
As to B7, the binding result in assay [6] is recorded as “binds”.
For B8, the binding result in assay [7] is “binds”.
For the molecule B9, in assay [1], the Kd is 5.2 nM, the koff came out at 0.0013 s⁻¹ and the association rate constant (kon) worked out at 250000 M⁻¹ s⁻¹.
